Measurements: patent US20090175866A1, “TREATMENT OF B-CELL MALIGNANCIES” (priority 2004, published 2009)

What was measured:
BMSC = assay: Direct toxicity on bone marrow stroma cells (annexin V); format: cell-based, human; details: 5 μg/ml, 72 hours (FIG. 5 legend)
Protocol: FIG. 5 is a graph showing apoptosis of UTMC2 cells in response to treatment with PRO-001 in the presence of BMSCs (stroma). BMSCs alone (stroma) or BMSCs together with UTMC2 cells (stroma/UTMC2) were cultured with control antibody or 5 μg/ml PRO-001 for 72 hours and apoptosis was assessed by means of a flow cytometry assay of annexin V binding and propidium iodide exclusion. Values represent means of quadruplicate cultures ±SD.
Non-transformed rat chondrocyte cell line expressing PGFR3 in an inducible manner (RCJ-FGFR3) has been described previously (Rauchenberger R. et al. J. Biol. Chem. 2003; 278:38194-205). Cells were maintained in α-Minimum Essential Media supplemented with 15% fetal calf serum (FCS), 2 mM L-Glutamine, 100 U/ml penicillin, 100 μg/ml streptomycin, 600 μg/ml G418 (Gibco BRL, Ontario, Canada), 2 μg/ml Tetracyclin (Sigma, Ontario, Canada), and 50 μg/ml HygromycinB (Gibco BRL). FGFR3 expression was induced by removal of tetracyclin and serum starvation. […]
For studies of apoptosis, cells were seeded at an initial density of 2.5×10^5/ml in 6 well plates coated with BMSCs and supplemented with control (vehicle or antibody) or 5 μg/ml PRO-001 and cultured for 48 h. Apoptosis was determined by Annexin V staining (Boehringer Mannheim, Indianapolis, Ind.) and analyzed by flow cytometry. […]

ERK1/2 phosphorylation = assay: FGF-induced ERK phosphorylation in primary myeloma cells (flow cytometry); format: cell-based, human; details: 5 μg/ml, 2 h pre-incubation
Protocol: FIGS. 6 A-B are flow cytometry charts of human primary myeloma cells treated with anti-FGFR antibody PRO-001. A: Freshly isolated BMSCs were stained with PRO-001 (black line) or control antibody (grey line) and then stained with PE-conjugated anti-human secondary antibody. B: Primary myeloma cells were incubated in the absence (filled) or presence of FGF (light line) or pre-incubated with 5 μg/ml PRO-001 (dark line) for 2 h and then stimulated with FGF. ERK1/2 phosphorylation was assessed by flow cytometry analysis.
Determination of ERK1/2 phosphorylation by flow cytometry has been described previously (Chow S, et al., Cytometry 2001; 46:72-78). Cells were serum-starved overnight and then stimulated with 30 ng/ml of aFGF and 10 μg/ml heparin for 10 minutes at 37° C. The cells were immediately fixed by adding 10% formaldehyde directly into the culture medium to obtain a final concentration of 2%. Cells were incubated in fixative for 10 min at 37° C. then on ice for an additional 2 minutes. The cells were permeabilized by adding ice-cold methanol (to a final concentration of 90%) while vortexing and incubated on ice for 30 minutes. […] Flow cytometry was performed on a FACSCaliber® flow cytometer (BD Biosciences, San Jose, Calif.) and analyzed using Cellquest® software (Becton Dickinson). […]

B1: PRO-001: human anti-FGFR3 Fab from HuCAL library; VH-CDR3 SEQ ID NO:1, VL-CDR3 SEQ ID NO:10; VH SEQ ID NO:19, VL SEQ ID NO:28 (antibody, V domains shown)
VH: QVQLQQSGPGLVKPSQTLSLTCAISGDSVSSNSAAWNWIRQSPGRGLEWLGRTYYRSKWYNDYAVSVKSRITINPDTSKNQFSLQLNSVTPEDTAVYYCARSYYPDFDYWGQGTLVTVSS
VL: DIELTQPPSVSVAPGQTARISCSGDALGDKYASWYQQKPGQAPVLVIYDDSDRPSGIPERFSGSNSGNTATLTISGTQAEDEADYYCQSYDGPDLWVFGGGTKLTVLGQ
Direct toxicity on the BMSC (BMSC): no direct toxicity | FGF-induced ERK phosphorylation in primary myeloma cells (ERK1/2 phosphorylation): blocked FGF-induced ERK phosphorylation
